Laboratory results reported in article doi:10.1101/2022.10.18.512691.

Assays:
[1] = biological target: APS-kinase from Methanothermococcus thermolithotrophicus (Methanothermococcus thermolithotrophicus); assay: crystal structure
[2] = biological target: ATP-sulfurylase from Methanothermococcus thermolithotrophicus (Methanothermococcus thermolithotrophicus); assay: SEC
[3] = biological target: ATP-sulfurylase from Methanothermococcus thermolithotrophicus (Methanothermococcus thermolithotrophicus); assay: crystal structure

Row | Substance | stoichiometry N [1] | stoichiometry N [2] | stoichiometry N [3]
1 | APS-kinase from Methanothermococcus thermolithotrophicus (enzyme) | 2 | – | –
2 | ATP-sulfurylase from Methanothermococcus thermolithotrophicus (enzyme) | – | 2 | 2
